# Test results as given in patent US20230277613A1, “Polysaccharide-Rich Bombax Costatum Flower Extract” (priority 2020, published 2023).
# Marks after values point to notes of the source that are not given here.
# Test system: normal human keratinocyte monolayer (NHK)
# Test: Scratch assay, migration of NHK
# Assay type: cell-based
# Details: EGF 100 ng/ml; 5 hours
# Protocol: Scratch Assay: a lesion was performed on a mat of normal human keratinocyte monolayer (NHK) at confluence before treatment with BCP extract at 0.01% and 0.05% dry matter or with EGF (Epidermal Growth Factor) at 100 ng/ml. A photo was taken at the start of treatment and after 5 hours of incubation in order to measure the rate of progression of the HCNs within the lesion. The percentage of coverage was evaluated under the different conditions by image analysis. The significance of the results was assessed by Student's t test.
molecule,measurement,value
"EGF: Epidermal Growth Factor, reference in the scratch assay (protein, UniProt P01133 23-1207, looked up, Pro-epidermal growth factor) Pro-epidermal growth factor: PQHWSCPEGTLAGNGNSTCVGPAPFLIFSHGNSIFRIDTEGTNYEQLVVDAGVSVIMDFHYNEKRIYWVDLERQLLQRVFLNGSRQERVCNIEKNVSGMAINWINEEVIWSNQQEGIITVTDMKGNNSHILLSALKYPANVAVDPVERFIFWSSEVAGSLYRADLDGVGVKALLETSEKITAVSLDVLDKRLFWIQYNREGSNSLICSCDYDGGSVHISKHPTQHNLFAMSLFGDRIFYSTWKMKTIWIANKHTGKDMVRINLHSSFVPLGELKVVHPLAQPKAEDDTWEPEQKLCKLRKGNCSSTVCGQDLQSHLCMCAEGYALSRDRKYCEDVNECAFWNHGCTLGCKNTPGSYYCTCPVGFVLLPDGKRCHQLVSCPRNVSECSHDCVLTSEGPLCFCPEGSVLERDGKTCSGCSSPDNGGCSQLCVPLSPVSWECDCFPGYDLQLDEKSCAASGPQPFLLFANSQDIRHMHFDGTDYGTLLSQQMGMVYALDHDPVENKIYFAHTALKWIERANMDGSQRERLIEEGVDVPEGLAVDWIGRRFYWTDRGKSLIGRSDLNGKRSKIITKENISQPRGIAVHPMAKRLFWTDTGINPRIESSSLQGLGRLVIASSDLIWPSGITIDFLTDKLYWCDAKQSVIEMANLDGSKRRRLTQNDVGHPFAVAVFEDYVWFSDWAMPSVMRVNKRTGKDRVRLQGSMLKPSSLVVVHPLAKPGADPCLYQNGGCEHICKKRLGTAWCSCREGFMKASDGKTCLALDGHQLLAGGEVDLKNQVTPLDILSKTRVSEDNITESQHMLVAEIMVSDQDDCAPVGCSMYARCISEGEDATCQCLKGFAGDGKLCSDIDECEMGVPVCPPASSKCINTEGGYVCRCSEGYQGDGIHCLDIDECQLGEHSCGENASCTNTEGGYTCMCAGRLSEPGLICPDSTPPPHLREDDHHYSVRNSDSECPLSHDGYCLHDGVCMYIEALDKYACNCVVGYIGERCQYRDLKWWELRHAGHGQQQKVIVVAVCVVVLVMLLLLSLWGAHYYRTQKLLSKNPKNPYEESSRDVRSRRPADTEDGMSSCPQPWFVVIKEHQDLKNGGQPVAGEDGQAADGSMQPTSWRQEPQLCGMGTEQGCWIPVSSDKGSCPQVMERSFHMPSYGTQTLEGGVEKPHSLLSANPLWQQRALDPPHQMELTQ",Evolution compared to the control,+85% **
